The values that follow come from patent publication US20230212182A1 (DUALITY BIOLOGICS SUZHOU, published 2023).

First the molecules themselves.
B1: Reference ADC-2 (Sacituzumab-Deruxtecan) (antibody, human IgG1, kappa, V domains shown)
VH: QVQLQQSGSELKKPGASVKVSCKASGYTFTNYGMNWVKQAPGQGLKWMGWINTYTGEPTYTDDFKGRFAFSLDTSVSTAYLQISSLKADDTAVYFCARGGFGSSYWYFDVWGQGSLVTVSS
VL: DIQLTQSPSSLSASVGDRVSITCKASQDVSIAVAWYQQKPGKAPKLLIYSASYRYTGVPDRFSGSGSGTDFTLTISSLQPEDFAVYYCQQHYITPLTFGAGTKVEIKR
modifications: Deruxtecan linker-drug conjugated after TCEP reduction of disulfide bonds (cysteine positions not stated); mean n=4.18 per antibody
B2: ADC-III-28 (antibody, human IgG1, kappa, V domains shown)
VH: B1 VH
VL: B1 VL
modifications: linker-drug L-III-30 conjugated after TCEP reduction of disulfide bonds (cysteine positions not stated); mean n=3.67 per antibody
B3: ADC-II-11-a (antibody, human IgG1, kappa, V domains shown)
VH: B1 VH
VL: B1 VL
modifications: linker-drug L-II-3 conjugated after TCEP reduction of disulfide bonds (cysteine positions not stated); mean n=3.73 per antibody

This assay has as its target T1, Trop2 (UniProt P09758 27-323, limits assumed).
T1 sequence (looked up): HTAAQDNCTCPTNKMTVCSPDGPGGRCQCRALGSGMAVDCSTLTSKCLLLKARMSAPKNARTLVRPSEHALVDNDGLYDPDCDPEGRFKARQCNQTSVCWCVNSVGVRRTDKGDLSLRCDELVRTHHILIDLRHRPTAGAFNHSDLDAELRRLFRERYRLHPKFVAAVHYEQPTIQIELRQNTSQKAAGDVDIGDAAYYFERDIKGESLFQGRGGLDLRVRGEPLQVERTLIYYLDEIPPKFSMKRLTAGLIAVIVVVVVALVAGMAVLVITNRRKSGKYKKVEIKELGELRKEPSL
Description: cell-based or functional assay.
In the case of B1, the “IC50 (nM), inhibition of in vitro proliferation of Colo205 cells (CTG, 6 days)” value was found to be 152 nM and the “IC50 (nM), inhibition of in vitro proliferation of SK-OV-3 cells (CTG, 6 days)” value turned out to be 501 nM.
In the case of B2, the “IC50 (nM), inhibition of in vitro proliferation of Colo205 cells (CTG, 6 days)” value came to 77.6 nM and the “IC50 (nM), inhibition of in vitro proliferation of SK-OV-3 cells (CTG, 6 days)” value was determined as 394 nM.
B3: the “IC50 (nM), inhibition of in vitro proliferation of Colo205 cells (CTG, 6 days)” value is 121 nM and the “IC50 (nM), inhibition of in vitro proliferation of SK-OV-3 cells (CTG, 6 days)” value worked out at 448 nM.
